Publication PMC5771124, “Characterization of a functional insertion sequence ISSau2 from Staphylococcus aureus”

Molecular target: ISSau2 transposase OrfAB (Staphylococcus aureus E48 (ISSau2 in …, UniProt UPI0010FBCD58 1-522, F226L))
Test: EMSA; Mg2+, excess poly(dI-dC), 0.42 ug OrfAB
Conditions: protein: recombinant; tags: N-terminal 6-His (pET32a vector fusion); label: biotin end label

B1: IRL42 (dsDNA)
DNA 1: TGAAATGCTCCCTTCAAAGTAGACATTGAAAAAATGAAAACT
DNA 2: AGTTTTCATTTTTTCAATGTCTACTTTGAAGGGAGCATTTCA
binding result: binds
